The record followed here is article PMC11252482 (Acta Pharmaceutica Sinica. B, 2024).

This assay addresses His-PKM2, purified recombinant (UniProt P14618-1 1-531). Briefly: pull-down.

Chain of His-PKM2, purified recombinant (P14618 whole entry): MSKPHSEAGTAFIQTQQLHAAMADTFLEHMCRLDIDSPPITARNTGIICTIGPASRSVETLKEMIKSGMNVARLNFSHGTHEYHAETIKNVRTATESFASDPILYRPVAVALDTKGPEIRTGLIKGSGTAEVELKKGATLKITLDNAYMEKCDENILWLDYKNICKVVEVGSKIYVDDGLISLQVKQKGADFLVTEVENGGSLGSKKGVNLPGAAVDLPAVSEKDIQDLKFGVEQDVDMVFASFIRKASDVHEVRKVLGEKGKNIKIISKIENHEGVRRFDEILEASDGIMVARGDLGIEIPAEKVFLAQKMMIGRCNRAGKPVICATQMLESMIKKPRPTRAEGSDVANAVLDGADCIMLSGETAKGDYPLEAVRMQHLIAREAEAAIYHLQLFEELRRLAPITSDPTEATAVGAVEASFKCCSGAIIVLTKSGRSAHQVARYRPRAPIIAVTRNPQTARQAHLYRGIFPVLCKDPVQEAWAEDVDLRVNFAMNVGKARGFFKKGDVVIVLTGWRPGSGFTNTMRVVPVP

B1: GST-KHK-A (enzyme)
chain: MEEKQILCVGLVVLDVISLVDKYPKEDSEIRCLSQRWQRGGNASNSCTVLSLLGAPCAFMGSMAPGHVADFVLDDLRRYSVDLRYTVFQTTGSVPIATVIINEASGSRTILYYDRSLPDVSATDFEKVDLTQFKWIHIEGRNASEQVKMLQRIDAHNTRQPPEQKIRVSVEVEKPREELFQLFGYGDVVFVSKDVAKHLGFQSAEEALRGLYGRVRKGAVLVCAWAEEGADALGPDGKLLHSDAFPPPRVVDTLGAGDTFNASVIFSLSQGRSVQEALRFGCQVAGKKCGLQGFDGIV
In the case of B1, the binding result was “binds”.

B2: GST-KHK-A G257R (enzyme)
chain: MEEKQILCVGLVVLDVISLVDKYPKEDSEIRCLSQRWQRGGNASNSCTVLSLLGAPCAFMGSMAPGHVADFVLDDLRRYSVDLRYTVFQTTGSVPIATVIINEASGSRTILYYDRSLPDVSATDFEKVDLTQFKWIHIEGRNASEQVKMLQRIDAHNTRQPPEQKIRVSVEVEKPREELFQLFGYGDVVFVSKDVAKHLGFQSAEEALRGLYGRVRKGAVLVCAWAEEGADALGPDGKLLHSDAFPPPRVVDTLGARDTFNASVIFSLSQGRSVQEALRFGCQVAGKKCGLQGFDGIV
B2: the binding result is “binds”.
